Assay results: patent US20140087995A1 (published 2014)
Numbered stars: 1 amine (or outer) side, 2 acyl side, 3 side chain; on linkers, the order of the positions; unused ones are H or OH. Bridge positions count the residues as written; N and C are the ends. Side chains are listed from the residue outwards. Ends that are not written are not given here. * marks the point of attachment. C20 diacid = O=C(O)CCCCCCCCCCCCCCCCCCC(=O)*; γGlu = O=C(O)[C@H](CCC(=O)[*:2])N[*:1]

T1: human amylin receptor (amylin 3(a) receptor: human calcitonin receptor co-expressed with RAMP-3) (human, UniProt P30988 25-474; O60896 24-148, limits assumed)
T1 construct: whole, on cells; Used as cell membranes prepared from the Amylin 3(a)/CRE-luc BHK cells (Assay V); also called hAmylin-R; hAmylinR
T1 sequence (looked up) 1: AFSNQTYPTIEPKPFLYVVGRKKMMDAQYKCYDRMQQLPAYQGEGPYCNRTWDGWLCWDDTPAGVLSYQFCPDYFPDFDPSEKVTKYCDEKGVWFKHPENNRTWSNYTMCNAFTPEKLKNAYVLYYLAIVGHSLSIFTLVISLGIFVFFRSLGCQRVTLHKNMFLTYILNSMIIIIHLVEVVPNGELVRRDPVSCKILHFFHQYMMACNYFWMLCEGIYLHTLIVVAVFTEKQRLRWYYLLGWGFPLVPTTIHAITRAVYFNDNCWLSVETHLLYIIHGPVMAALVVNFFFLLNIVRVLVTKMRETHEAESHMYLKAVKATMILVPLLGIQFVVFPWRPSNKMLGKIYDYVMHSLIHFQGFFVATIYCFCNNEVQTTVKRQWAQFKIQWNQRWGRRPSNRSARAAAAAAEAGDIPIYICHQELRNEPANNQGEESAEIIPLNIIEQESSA
T1 sequence (looked up) 2: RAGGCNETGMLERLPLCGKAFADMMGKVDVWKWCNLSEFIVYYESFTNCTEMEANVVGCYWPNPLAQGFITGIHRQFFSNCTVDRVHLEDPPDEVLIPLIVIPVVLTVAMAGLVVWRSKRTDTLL

T2: human amylin receptor (amylin 3(a) receptor: human calcitonin receptor plus RAMP-3) (human, UniProt P30988 25-474; O60896 24-148)
T2 construct: whole, on cells; functional assay used the whole cells; also called hAmylin-R; hAmylinR
T2 sequence (looked up) 1: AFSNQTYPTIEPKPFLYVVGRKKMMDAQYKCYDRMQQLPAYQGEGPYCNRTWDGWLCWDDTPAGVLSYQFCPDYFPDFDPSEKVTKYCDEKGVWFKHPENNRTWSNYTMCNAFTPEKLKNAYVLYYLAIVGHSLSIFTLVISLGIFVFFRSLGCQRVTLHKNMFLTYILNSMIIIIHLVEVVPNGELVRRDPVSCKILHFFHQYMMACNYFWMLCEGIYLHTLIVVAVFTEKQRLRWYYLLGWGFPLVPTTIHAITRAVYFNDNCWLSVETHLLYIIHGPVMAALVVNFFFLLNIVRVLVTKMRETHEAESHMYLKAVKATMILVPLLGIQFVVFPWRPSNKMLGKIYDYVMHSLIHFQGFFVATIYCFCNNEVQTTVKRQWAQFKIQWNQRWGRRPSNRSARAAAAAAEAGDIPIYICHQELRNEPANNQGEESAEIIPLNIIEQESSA
T2 sequence (looked up) 2: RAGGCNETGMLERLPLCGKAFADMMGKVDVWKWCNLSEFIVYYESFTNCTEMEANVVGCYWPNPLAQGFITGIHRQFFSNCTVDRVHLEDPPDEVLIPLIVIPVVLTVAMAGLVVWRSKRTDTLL

T3: human calcitonin receptor (human, UniProt P30988 25-474)
T3 sequence (looked up): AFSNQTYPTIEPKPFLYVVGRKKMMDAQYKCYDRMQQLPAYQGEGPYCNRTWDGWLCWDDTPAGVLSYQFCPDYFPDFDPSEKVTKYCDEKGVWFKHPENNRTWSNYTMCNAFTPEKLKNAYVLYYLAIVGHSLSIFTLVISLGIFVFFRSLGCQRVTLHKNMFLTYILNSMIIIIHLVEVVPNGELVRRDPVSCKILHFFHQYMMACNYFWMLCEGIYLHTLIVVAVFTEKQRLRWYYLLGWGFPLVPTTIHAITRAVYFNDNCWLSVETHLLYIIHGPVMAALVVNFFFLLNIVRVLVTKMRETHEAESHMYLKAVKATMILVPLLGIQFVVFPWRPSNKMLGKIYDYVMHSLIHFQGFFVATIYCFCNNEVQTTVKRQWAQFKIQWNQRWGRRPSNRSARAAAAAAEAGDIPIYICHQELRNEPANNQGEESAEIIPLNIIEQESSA

B1: N^-1-[(4S)-4-carboxy-4-(19-carboxynonadecanoylamino)butanoyl]-Gly[Arg1,Ala14,Arg17,Pro21,Pro27,Pro34]-h-amylin (peptide)
peptide: {C20 diacid-γGlu}-GRCNTATCATQRLAAFLRHSSPNFGAIPSSTNVGPNTY-NH2
modifications: disulfide 3-8
B2: N^ε1-[(4S)-4-carboxy-4-[[(4S)-4-carboxy-4-(19-carboxynonadecanoylamino)butanoyl]amino]butanoyl]-[Glu14,Arg17,Pro21,Pro27,Pro34,Phe37]-h-amylin (peptide)
peptide: K([γGlu-γGlu-C20 diacid])CNTATCATQRLAEFLRHSSPNFGAIPSSTNVGPNTF-NH2
modifications: disulfide 2-7; N-terminus assumed
SMILES: CC[C@H](C)[C@H](NC(=O)[C@H](C)NC(=O)CNC(=O)[C@H](Cc1ccccc1)NC(=O)[C@H](CC(N)=O)NC(=O)[C@@H]1CCCN1C(=O)[C@H](CO)NC(=O)[C@H](CO)NC(=O)[C@H](Cc1c[nH]cn1)NC(=O)[C@H](CCCNC(=N)N)NC(=O)[C@H](CC(C)C)NC(=O)[C@H](Cc1ccccc1)NC(=O)[C@H](CCC(=O)O)NC(=O)[C@H](C)NC(=O)[C@H](CC(C)C)NC(=O)[C@H](CCCNC(=N)N)NC(=O)[C@H](CCC(N)=O)NC(=O)[C@@H](NC(=O)[C@H](C)NC(=O)[C@@H]1CSSC[C@H](NC(=O)[C@@H](N)CCCCNC(=O)CC[C@H](NC(=O)CC[C@H](NC(=O)CCCCCCCCCCCCCCCCCCC(=O)O)C(=O)O)C(=O)O)C(=O)N[C@@H](CC(N)=O)C(=O)N[C@@H]([C@@H](C)O)C(=O)N[C@@H](C)C(=O)N[C@@H]([C@@H](C)O)C(=O)N1)[C@@H](C)O)C(=O)N1CCC[C@H]1C(=O)N[C@@H](CO)C(=O)N[C@@H](CO)C(=O)N[C@H](C(=O)N[C@@H](CC(N)=O)C(=O)N[C@H](C(=O)NCC(=O)N1CCC[C@H]1C(=O)N[C@@H](CC(N)=O)C(=O)N[C@H](C(=O)N[C@@H](Cc1ccccc1)C(N)=O)[C@@H](C)O)C(C)C)[C@@H](C)O
B3: N^-1-[(4S)-4-carboxy-4-(19-carboxynonadecanoylamino)butanoyl]-Gly[Arg1,Arg17,Pro21,Pro27,His35]-h-amylin (peptide)
peptide: {C20 diacid-γGlu}-GRCNTATCATQRLANFLRHSSPNFGAIPSSTNVGSHTY-NH2
modifications: disulfide 3-8
SMILES: CC[C@H](C)[C@H](NC(=O)[C@H](C)NC(=O)CNC(=O)[C@H](Cc1ccccc1)NC(=O)[C@H](CC(N)=O)NC(=O)[C@@H]1CCCN1C(=O)[C@H](CO)NC(=O)[C@H](CO)NC(=O)[C@H](Cc1c[nH]cn1)NC(=O)[C@H](CCCNC(=N)N)NC(=O)[C@H](CC(C)C)NC(=O)[C@H](Cc1ccccc1)NC(=O)[C@H](CC(N)=O)NC(=O)[C@H](C)NC(=O)[C@H](CC(C)C)NC(=O)[C@H](CCCNC(=N)N)NC(=O)[C@H](CCC(N)=O)NC(=O)[C@@H](NC(=O)[C@H](C)NC(=O)[C@@H]1CSSC[C@H](NC(=O)[C@H](CCCNC(=N)N)NC(=O)CNC(=O)CC[C@H](NC(=O)CCCCCCCCCCCCCCCCCCC(=O)O)C(=O)O)C(=O)N[C@@H](CC(N)=O)C(=O)N[C@@H]([C@@H](C)O)C(=O)N[C@@H](C)C(=O)N[C@@H]([C@@H](C)O)C(=O)N1)[C@@H](C)O)C(=O)N1CCC[C@H]1C(=O)N[C@@H](CO)C(=O)N[C@@H](CO)C(=O)N[C@H](C(=O)N[C@@H](CC(N)=O)C(=O)N[C@H](C(=O)NCC(=O)N[C@@H](CO)C(=O)N[C@@H](Cc1c[nH]cn1)C(=O)N[C@H](C(=O)N[C@@H](Cc1ccc(O)cc1)C(N)=O)[C@@H](C)O)C(C)C)[C@@H](C)O
notes: N-terminal extension by Gly at position -1; also called compound 47

Key:
[1] = target: T1, human amylin receptor (amylin 3(a) …); assay: SPA displacement of 125I-rat amylin, hAmylin 3(a) receptor membranes
Summary of the method: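 Cell membranes were prepared by homogenisation in Na-HEPES/EDTA buffer, pH 7.4, and stored at −80° C. They were then coupled to SPA beads at 35 ng/μL final and exposed to compounds in assay buffer containing CaCl2, MgCl₂, OA and Tween20. After 120 min at 25° C, plates were counted and IC₅₀ derived.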

[2] = target: T2, human amylin receptor (amylin 3(a) …); assay: SPA competition, displacement of 125I-rat amylin from membranes of BHK cells with human calcitonin receptor + RAMP-3 (Assay V)
Protocol: The binding assay was performed using scintillation proximity assay (SPA) beads (RPNQ0001) from PerkinElmer and cell membranes from the Amylin 3(a)/CRE-luc cells (as described in Assay (II)) were used. Membranes were prepared in the following way; the cells were rinsed with PBS and incubated with Versene for approximately 5 min before harvesting. The cells were flushed with PBS and the cell-suspension was centrifuged for 5 min at 1000 rpm. Cells were homogenized (ultrathurrax) in a buffer containing 20 mM Na-HEPES and 10 mM EDTA (pH 7.4) and centrifuged at 20.000 rpm for 15 min. The resulting pellet was resuspended, homogenized and centrifuged (20.000 rpm, 15 min) in a buffer containing 20 mM Na-HEPES and 0.1 mM EDTA (pH 7.4, buffer 2). The resulting pellet was resuspended in buffer 2 and protein concentration was measured (BCA protein Assay, Pierce). The homogenate was kept cold during the whole procedure. The membranes were kept at −80° C. until use. The assay was performed in a 384 well Optiplate (PerkinElmer) in a total volume of 40 ul. Membranes were mixed with SPA beads. Final concentration of membranes 35 ng/μL final and SPA beads was 0.05 mg/well. Test-compounds were dissolved in DMSO and further diluted in assay buffer (50 mM Hepes, pH 7.4, 1 mM CaCl2, 5 mM MgCl₂, 0.1% OA and 0.02% Tween20). […] The final mixture was incubated with shaking at 400 rpm for 120 min at 25° C. prior to centrifugation (1500 rpm, 10 min). Samples were analyzed on TopCounter™ (Packard). The IC₅₀ was calculated using (one site binding competition analysis) GraphPad Prism5 as a measure of receptor affinity.

[3] = target: T3, human calcitonin receptor; assay: cell-based or functional assay
[4] = target: T2, human amylin receptor (amylin 3(a) …); assay: cell-based or functional assay

Row | Binder | IC50 [1] | IC50 [2] | hCTR funct. EC50 (pM) [3] | Ratio hCT/hAmylin funct. [4] | hAmylin-R funct. EC50 (pM) [4]
1 | B1 | 0.114 nM |  |  |  | 
2 | B2 | 0.152 nM |  |  |  | 
3 | B3 |  | 0.344 nM | 1320 pM | 6 | 222 pM
